Experiment [1] has as its system mouse fibroblast cell line NIH/3T3. The experiment can be described thus: Inhibition of growth factor activity of VHH homodimer by FGFR inhibitor (fibroblasts). The format is cell-based. As to conditions: 20 nM. An excerpt:
Promotion of Fibroblast Growth by VHH (Homodimer)” described above.
It was examined whether the cell growth activities of bFGF and the single-domain antibody were inhibited by NPV-BGJ398 which is an FGFR kinase inhibitor.

The subject of experiment [2] is NIH3T3 (mouse fibroblast cell line). The experiment can be described thus: Inhibition of growth factor activity of VHH homodimer by FGFR antagonist. It is filed as cell-based. Conditions: 20 nM. On the procedure:
The cell growth assay for FGF2 was performed according to the following procedure. On Day 1, a suspension including 2.5×10^4 cells/mL of NIH3T3 in DMEM of 10% CS and PS(+) was created, seeded on a CulturPlate-96 (White Opaque 96-well Microplate, manufactured by Perkin Elmer, Cat #6005680) at 100 μL/well, and cultured in a 5% CO2 incubator at 37° C. for 16 to 24 hours. On Day 2, the medium was replaced with FGF2 (PeproTech Cat #AF-100-18B) or serum-free PS(+) DMEM including various test substances, and the cells were further cultured for 2 days. On Day 4, the 96-well plate was left at room temperature for 30 minutes, and then 100 μL of Cell Titer Glo 2.0 Reagent (manufactured by Promega Corporation) at room temperature was added to each well, followed by stirring at 500 rpm for 2 minutes using a plate mixer. The plate was further left to stand for 8 minutes, and then the luminescence in each well was measured with a Synergy HTX plate reader (manufactured by BioTek) with a sensitivity set (Gain) of 200 and a measurement time of 1 s/well.
The addition amounts of FGF2 and #1L4 (hereinafter also referred to as “#1-L4-#1”), which is a dimer of VHH #1 with a linker […], were each 10 or 100 ng/mL.

The target in experiment [3] is FGFR (fibroblast growth factor receptor on NIH3T3 mouse fibroblast cells). The experiment can be described thus: cell-based or functional assay.
Experiment [4] addresses FGF Receptor 1β (IIIc)/Fc Chimera Human Recombinant Carrier-free (R & D Systems Cat. no. 661-FR) (human) (UniProt P11362). Kind of experiment: SPR (Biacore T200, CAP chip, biotinylated FGFR1-Fc captured, VHH injected at 1.85-50 nM, single-cycle kinetics, 1:1 model, 25 C).
The target in experiment [5] is T1, FGFR3-Fc (human, UniProt P22607 23-375).
T1 chain: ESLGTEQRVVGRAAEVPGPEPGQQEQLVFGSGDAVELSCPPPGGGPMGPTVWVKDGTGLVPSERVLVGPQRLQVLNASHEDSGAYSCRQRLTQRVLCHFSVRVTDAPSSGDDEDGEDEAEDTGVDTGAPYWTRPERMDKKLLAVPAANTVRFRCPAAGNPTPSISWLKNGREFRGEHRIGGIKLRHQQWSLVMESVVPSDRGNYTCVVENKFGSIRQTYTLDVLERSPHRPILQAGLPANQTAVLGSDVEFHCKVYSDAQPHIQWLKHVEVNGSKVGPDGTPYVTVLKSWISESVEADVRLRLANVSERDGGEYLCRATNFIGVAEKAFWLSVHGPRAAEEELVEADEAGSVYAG
Kind of experiment: SPR (Biacore T200, same manner as Example 5, 1:1 model).

The target in experiment [6] is T2, FGFR4-Fc (human, UniProt P22455 22-369, limits assumed).
T2 construct: not shown: Fc part
T2 sequence (looked up): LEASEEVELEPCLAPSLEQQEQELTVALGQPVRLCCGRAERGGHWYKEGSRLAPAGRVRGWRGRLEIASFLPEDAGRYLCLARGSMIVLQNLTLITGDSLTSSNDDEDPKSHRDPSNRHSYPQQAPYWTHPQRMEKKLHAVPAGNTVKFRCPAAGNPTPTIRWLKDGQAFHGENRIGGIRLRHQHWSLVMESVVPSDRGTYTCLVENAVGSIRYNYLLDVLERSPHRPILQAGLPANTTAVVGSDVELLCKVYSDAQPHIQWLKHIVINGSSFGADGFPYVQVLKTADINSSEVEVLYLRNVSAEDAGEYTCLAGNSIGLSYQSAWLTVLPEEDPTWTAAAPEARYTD
Described as above.

The target in experiment [7] is FGFR2-Fc (human) (UniProt P21802). The experiment is described as above.
Experiment [8] concerns the target T3, FGFR1-DIII (FGFR1 extracellular domain, DIII domain) (human, UniProt P11362 251-365).
T3 construct: domain: DIII; Expressed in AAVpro293T cells from a synthesised DNA fragment
T3 sequence (looked up): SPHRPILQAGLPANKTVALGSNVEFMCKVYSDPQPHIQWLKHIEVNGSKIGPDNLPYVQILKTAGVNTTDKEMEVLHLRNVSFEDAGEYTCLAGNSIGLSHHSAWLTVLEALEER
Kind of experiment: BLI (Octet 384), VHH Clone #1 captured on Anti-Penta-HIS sensor, FGFR1 protein in solution from 100 nM in 2-fold dilutions, global 1:1 fit. On the procedure: (§1) In the preparation for measurement, a tip of the sensor chip was immersed in 200 μL of the kinetics buffer for 10 minutes in order to hydrate the sensor chip. Thereafter, 70 μL of each measurement solution was added to a 384-well black plate (manufactured by Fortebio), and measurement was performed in the following steps 1) to 6). [0291] 1) Baseline step: Baseline measurement (30 seconds) in a kinetics buffer, [0292] 2) Loading step: Immobilization of a VHH antibody on a sensor (120 seconds), [0293] 3) Baseline step: Baseline measurement (30 seconds) in a kinetics buffer, [0294] […] 5) Dissociation step: Measurement in a kinetics buffer (120 seconds), [0296] 6) Regeneration step: Measurement in Glycin-HCl (pH 2.2) for 5 seconds and measurement in a kinetics buffer for 5 seconds are repeated three times.
(§2) After completion of the measurements, the measured value of a Reference (only the kinetics buffer) was subtracted from the actual measurement value, and Global Fitting was performed using a 1:1 binding model using Octet software to calculate the binding activity (FIG. 22).

For experiment [9], the target named is T4, FGFR1-DIIDIII (FGFR1 extracellular domain, DII and DIII domains) (human, UniProt P11362 142-365).
T4 construct: domain: DIIDIII; Expressed in AAVpro293T cells from a synthesised DNA fragment
T4 sequence (looked up): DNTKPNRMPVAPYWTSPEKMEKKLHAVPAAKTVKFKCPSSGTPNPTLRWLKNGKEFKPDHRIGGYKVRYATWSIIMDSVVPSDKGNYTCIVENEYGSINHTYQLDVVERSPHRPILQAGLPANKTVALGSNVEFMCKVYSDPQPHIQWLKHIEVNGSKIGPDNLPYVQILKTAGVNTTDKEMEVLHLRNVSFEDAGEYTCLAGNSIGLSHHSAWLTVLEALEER
The description is as above. As to the method: as §1, §2

In experiment [10] the target is T5, FGFR1-DII (FGFR1 extracellular domain, DII domain) (human, UniProt P11362 142-250).
T5 construct: domain: DII; Expressed in AAVpro293T cells from a synthesised DNA fragment
T5 sequence (looked up): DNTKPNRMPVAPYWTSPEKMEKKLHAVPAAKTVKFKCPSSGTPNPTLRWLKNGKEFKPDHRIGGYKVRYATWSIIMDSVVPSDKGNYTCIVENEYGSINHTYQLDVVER
The experiment can be described thus: BLI (Octet 384); VHH Clone #1 immobilised on an Anti-Penta-HIS sensor, FGFR1-DII in solution [A]. On the procedure: as §1, §2

For `CCN1CCN(c2ccc(Nc3cc(N(C)C(=O)Nc4c(Cl)c(OC)cc(OC)c4Cl)ncn3)cc2)CC1` [NVP-BGJ398], the “effect of NVP-BGJ398 itself on cell growth” value in experiment [1] and in experiment [2] was “little effect on cell growth” throughout.

Molecule “basic FGF (PeproTech, AF-100-18B) (from UniProt P09038 135-288) (ligand)” showed an EC50 of the growth of cultured fibroblasts (NIH/3T3, Cell Titer Glo luminescence) in [3] of 5.1 nM.

B1: VHH Clone #2 (VHH monomer Clone #2) (VHH, not shown: small tags and cut ends)
VHH: QVQLVESGGGLVQAGGSLRLSCAVPGSIFRFNTMGWYRQPPGKQRELVAQMSRGGITKYGDSVKGRFTITRDNAKNTVHLQMNSLKPEDTAVYYCAGSYYSGSYYYPSPQGFSVWGQGTQVTVSP
In the case of B1, in experiment [4], the Kd was 1.02 nM, the koff is 0.00114 s⁻¹ and the kon stood at 1.11e+06 M⁻¹ s⁻¹.

B2: VHH Clone #1 (VHH monomer Clone #1) (VHH)
VHH: QLQLVESGGGSVQAGGSLRLSCAASRSLSRFNVWTWYRQAPVKQRELVASITKSGDTNYAESVKGRFIISRDDDKNTVYLQMNNLKSEDTGIYYCAGSYYSGSYLYPSPGGFSVWGQGTQVTVSS
notes: also called VHH #1; FGFR #1; not shown: C-terminal His tag (purified on Ni Sepharose, captured on Anti-Penta-HIS sensor)
With B2, the Kd in experiment [5] was determined as 1010 nM; in experiment [6] it was 22.2 nM; in experiment [7] it was 1630 nM; in [4] it was 1.74 nM; in [8], 1.18 nM; in experiment [9] it was 0.489 nM. Moreover, the koff was determined as 0.235 s⁻¹ in experiment [5]; 0.0527 s⁻¹ in experiment [6]; 0.776 s⁻¹ in experiment [7]; 0.000351 s⁻¹ in [8]; 0.000141 s⁻¹ in experiment [9]. Further, the kon in experiment [5] was 232000 M⁻¹ s⁻¹; in [6] it was 2.37e+06 M⁻¹ s⁻¹; in [7], 484000 M⁻¹ s⁻¹; in experiment [8], 298000 M⁻¹ s⁻¹; in experiment [9], 289000 M⁻¹ s⁻¹. Also, in [10], the binding result was “no binding”.

Source of the values: patent publication US20240279618A1, “RECEPTOR TYROSINE KINASE AGONIST, COMPOSITION FOR CELL CULTURE MEDIUM, AND […] MAINTENANCE COMPOSITION” (SEKISUI CHEMICAL CO., LTD., priority 2021, published 2024).
